# According to the nanobody polyreactivity screen of Harvey et al. (2022):
# Assay: yeast display, Sf9 membrane polyspecificity reagent, FACS + sequencing; frameworks hold sequencing errors
# Outline: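 Sorting gates, low and high (top ~1%), were placed on anti-HA fluorescence to track expression and on streptavidin fluorescence to track reagent binding. A clone's polyreactivity label is taken from the gate it came out of. The reagent was 10% biotinylated, detergent-solubilized Sf9 membrane, applied for 1 hour at 4 °C to galactose-induced yeast display cells.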
row,Sequence,polyreactivity (PSR sort gate)
1,QVQLVESGGGLDQAGGSLRLSCAASGRIFGYYAMGWYRQAPGKERELVAAISRSGGSTNYADSVKGRFTISRDTAKNTVYLQMNSLKPEDTAVYYCAVRYPYYSPFGGYDYWGQGTQVTVSS,high polyreactivity
2,QVQLVESGGGLVQAGGSLRLSCAASGFTFYKNAMGWYRQAPGKERELVARITGRGGSTYYADSVKGRFTISRDNAKNTVYLQMNSLKPEDTAVYYCAVDGLVWRNRGFDYWGQGTQVTVSS,high polyreactivity
3,QVQLVQSGGGLVQAGGSLRLSCAASGRTFRIYAMGWYRQAPWKEREFVAGITRSDGSTYYADSVKGRFTISRDNAKNTVYLQMISLKPEDTAVYYCNVEPYSHYRSTEDYWGQGTQVTVSS,high polyreactivity
4,QVQLVESGGGLVQAGGSLRLSCAASGSIFNYYTMGWYRQAPGKERELVAAITWSGGRTYYADSVKGRFTISRDNAKNTVYLQMNSLKPEDTAVYYCNAVAYKPGGGDDFESWGQGTQLTVSS,high polyreactivity
5,QVQLVESGGGLVQAGGSLRLSCAASGFIFIKYAMGWYRQAPGKERELVAAISSSGGSTYYADSVKGRFTISRDNAKNTVYLQMNSLKPEDTAVYYCAARGTWSRYGYWGQGTQVTVSS,high polyreactivity
6,QVQLVESGGGLVQAGGRLRLSCAASGSTFSLNTMGWYRQAPGKERELFAAIRWRSGSTYYADSVKGRFTISRDNAKNTVYLHKNRLKPEDNAVYYCAVTARVTFLLRDGGRAEFDYWGQGTQVTVSS,low polyreactivity
7,QVQLVESGGGLVQAGGSLRLSCAASGSILDTNAMGWYRQAPGKERELVARIDIDGSTNYADSVKGRFTISRDNAKNTVYLQMNSLKPEDTAVYYCNKDHSSYGASGYDYWGQGTQVTVSS,low polyreactivity
8,QVQLVDSGGGLVQAGGSLRLSCAASGFTFAYYAMGWYRQAPGKERELVAGISWRGGRTYYADSVKGRFTISRDNAKNTVYLQMNSLKPEDTAVYYCAKQPGNFGRFDYWGQGTKVTVSS,high polyreactivity
9,QVQLVESGVGLVQAGGSLRLIWAASGRTFYRNVMGWYRQAPGKERELVAAISWSGGRTYYADSVKGRFTISRDNAKNTVYLQMNSLKPEDTAVYYCAARYRTLDGEVDYWGQGTQVTVSS,high polyreactivity
10,QDQLVESGGCLVQAGGSLRLSCAASGSIFYVNAMGWYRPAPRKERELVAGISRSGGRTYYADSVKGRFTISRDNAKNTVYLHMNSLIPEDTAVYYCAALVGRIWYGLDYWGQGTQVTVSS,high polyreactivity
11,QVQLVESGGGLVHAGGSLRLSCAASGSIFTDYAMGWYRQAPGKERELVAVIDIDGSTYYADSVKGRFTISRDNEKNSVYLQMNSLKPEDTAVYYCAAGYTYYSLYGYWGQGTQVTVSS,low polyreactivity
12,QVQLVESGGGVQAGCSLRLSCAASGRTFVPYGMGWYRQAPGKERELVAAISSIGDSTSYADSVKGRFTISRDNAKNTVYLQMNSLKPEDSAVYYCADVTWYDEYDSWGKGTQVTVSS,low polyreactivity
13,QVQLVESGGGLVQAGGSLRLSCAASGRISVKYAMGWYRQAPGKERELVAANDSSGGSTSYADSVKGRFTISRDNAKNTVYLQMNSLKPEDTAVYYCADDTWYRAGYFVFYYDYWGQGTQVTVSS,low polyreactivity
14,QVQLVESGGGLVQAGGSLRLSCAASGSTFWRNAMGWYRQAPGKERELVAAISRGGSTNYADSVKGRFTISRDNAKNTVYLQMNSLKPEDTAVYYCAARYYYRYNYWGQGTQVTVSS,high polyreactivity
15,QVQLVESGGGLVQAGGSLRLSCAASGSTFAYYTMGWYREAPGKERELVAAISKSGGSTTYADSVKGRFTISRDNAKNTVYLQMNSLKPEDTAVYYCAAYDRVENYNYWGQGTQVTVSS,high polyreactivity
16,QVQLVESGGGLVQAGGSLRLSCAASGYIFYNYAMGWYRQAPGKERELVAAISRRGGSTYYADSVKGRFTISRDNAKNTVYLEMNSLKPEDTAVYYCAAKQYGWNLYGYWGQGTQVTVSS,high polyreactivity
17,QVQLVESGGGLVQAGGSLRLSCAASGRTFRTYAMGWYRQAPGKETELVAANSSGGSTNYADSVKGRFTISRDNEKNTVYLQMNSLKPEDTAVYYCATRPTSDFVKRRVYEWLDYWGQGTQVTVSS,low polyreactivity
18,QVHLVESGGGLVQAGGSLRLTCAASGRILWSYAMGWYRQAPGKERELVAAITSGTRTNYADSVKGRFTISRDNAKNTVYLQMNSVKPEDTAVFSCNAVSLRYRFDYWGQGTQLTVSS,high polyreactivity
19,QVQLVESGGGLVQAGGSLRLSCAASGSTFQRYAMGWYRQAPGKERELVAAITWSNGSTYYADSVKGRFTISRDNAKNTVYLQMNSLKPEDTAVYYCDAEVHLGGDYWGQGTQVTVSS,low polyreactivity
20,KVQIVESGGGLVQAGRSLRLSCAASGLTFFGNAMGWYRQAPGKERDLVATISSCGGTSYADSVKGRFTISRDNAKNTVYLQMNSLKPEDTEVYYCAADIVEEFDYWGLGTQVTVSS,low polyreactivity
21,QVQLVESGGGVVQAGGSLRLSCAASGRIFGPNDMGWYRQAPGKGRELVAAITDSGDITYYADSVKGRFTISRDTAKNTVNVQMNCLKPEDTAVNYFAADHTYENEYRGQGTQVTVSS,low polyreactivity
22,QVQLVESGGGLVQAGGSLRLSCAASGSTFEYYAMGWYRQAPGKEREFVAAITSTGGSTHYADSVKGRFTISRDNAKNTVYLQMNSLKPEDTAVYVCGKRSYGQTRAYSAGNYWGQGNQVTVSS,low polyreactivity

row,Sequence,polyreactivity (PSR sort gate)
1,QVQLVESGGGLVQAGGSLRLSCAASGFTFKYYAMGWYRQAPGKERELVARISWSGGSTYYADSVKGRFTISRDNAKNTVYLQMNSLKPEDTAVYYCAAKLYSKRTGARMNYWGQGTQVTVSS,high polyreactivity
2,QVQLVESGGGLVQAGGSLRLSCAASGRIFRYYAMGWYRKAPGKERELVASISQRGGSTYYADSVKGRFTISRDNAKNTVYLQMNSLKPEDTAVYYCAARRSTVFILDYDWGQGTQVTVSS,high polyreactivity
3,QVQLVESGGGLVQAGGSLRLSCAASGSIFWNYAMGWYRQAPGKEREFVASISRSGGSTYYADSVKGRFTISRDNAKNTVYLQMNSLKPEDTAVYYCAARGVKISYNYWGQGTQVTVSS,high polyreactivity
4,QVQLVESGGGLVQAGGSLRLSCAASGRIFGQYAMGWYRQAPGKDRELVAAISWRGGTTYYADSVKGRFTISRDNAKNTVYLQMNSLKPEDTAVYYCNADVWVYPYDYWGQGTQVTVSS,low polyreactivity
5,QVQLVESGGGLVQAGGSHRLSCAASGRTFRDNTLGWYRQAPGKERELVAAISRRGGSTYYADSVKGRFTISRDNANNTVYLQMNSLKPVDTADYYCNAVFLTYGSNRGEYWGQGTQVTVSS,high polyreactivity
6,QVHHVESGGGLVQAGGSLRLSCAASGGTFYYNAMGWYRQAPGKERELVAAIDGSGGTTYYADSVKGRFTISRDNAKNTVYLQMNSLKPEDTAVYYCAAAGSPSVYGYGYWGQGTQVTVSS,low polyreactivity
7,QVQLVESGGGLVQAGGSLRLSYAASGSTFRVYAMGWYRQAPGKERELVAAISRSGGRTYYADSVKGRFTISRDNAKNTVYLQMNSLKPEDTAVYYCAADYKYTAVSDDYWGQGTQVTVSS,high polyreactivity
8,QVQLVESGGGLVQAGGSLRLSCAASGIIFLDYVMGWYRQAPGKERELVAAISRSGGTTYYADSVKGRFTISRDNAKNTVYLQMNSLKPEDTAVYYCAVRSYRDTRFYYWGQGTQVTVSS,high polyreactivity
9,QVQLVESGGGLVQAGGSLRLSCAASGRTIPNVMGWYRQAPGKERELVAAISSSVGSTSYADSVKGRFTISRDNAKNTVYLQMNSLKPEDTAVYYCAARYYYRDWVGIISTYYYWGQGTQVTVSS,high polyreactivity
10,QVQLVESGGGLVQAGGSLRLICAASGSTFSSNAMGWYRQAPGKERELVAAISRSGVTTYYADSVKGRFTISRDNAKNTVYLQKHSLKPEDTAVYYCAAQPYSRRYGRYRGFQYKYEYWGQGTQVTVSS,low polyreactivity
11,QVQLVESGGGLVQAGGSLRLSCAASGRTFAIYVMGWYRQAPGKERELVAAISRGGSTYYADSVKGRFTISRDNAKNTVYLQMNSLKPEDTAVYYFAAGTGTTSRYYYWGQGTQVTVSS,high polyreactivity
12,QVQLVESGGGLVQAGGSLRLSCAASGFTFDYNAMGWYRQAPGKERELVAAISASGGSTYYADSVKGRYTISRDTAKNTVYLQMNSLKPEYTAVYYCAAKRFSPQHRYDHWGQGTQVTVSS,high polyreactivity
13,QVQLVESGGGLVQAGGSLRLSCAASGRTYRSNVMGWYRQAPGKERELVASITWSGGTTYYADSVKVRFTISRDNAKNTVYLQMNSLKPEDTAVYYCNAADERSQGWVGYDHWGQCTQVTVSS,low polyreactivity
14,QVQLQESGGGLVQAGGSLRLSCAASGSIFVSVTMGWYRPAPGKERELVASIGRGSTTNHADSVKGRFTISRDNAKNIVYLLMNSLKPEDTAVYYCAALESYGKYHGYWGQGTQVTVSS,low polyreactivity
15,QVQLVESGGGLVQAGGSLRLSCAASGRTFASYAMGWYRQAPAKDRELVAAITSGGSTKYADSVKGRFTISRDNAKNSVYFQMNSLTPEDTAVYYCWRYVFHLSNYYYWGQGTQVTVSS,high polyreactivity
16,QVQLVESGGGLVQAGGSLRLICAASGNTFYGYAMGWYRQAPGKERELVASITLSGDSTYYADSVKGRFTISRDNAKNTVYVQMNSLKPEDTAVYYCAGVYTYPLGYYHDTYDYWGQGTQVTVSS,low polyreactivity
17,QVQLVETGGGLVQAGGSLRLSCAASGFIGSNTMGWYRQAPGKERELVAAISWSGGSTYYADSVKGRFTISRDNAKNTVYLQMNSLKPEDSAVYYCAARRNSRARRTFGYWGQGTQVSVSS,high polyreactivity
18,QVQLVESGGGLVQAGGSLRLSCAASGFTFADNAMGWYRQATGKERELVAAISWNGGRTFYADSVKGRFTISRDNAKNTVYLQMNSLKPEDSAVYYCNAVFIVRKYTGWSTGEGYWGQGTQVTVSS,high polyreactivity
19,QVQLVESGGGLVQAGGSLRLSCAASGIISGRTGMGWYRQATGKERELVASISDSGSSTYYADSVKGRFTISRDNAKNTVYLQMNSLKPEDTAVYYCATDLLASRYGYWGQGTQVTVSS,low polyreactivity
20,QVQLVESGGGLVQAGGSLRLSCAASGRIFQPNVMGWYRPAPGKERELVAAIRSGSSTYYADSVKGRFTISRDNAKYTVYLQMNCLKPEDTAVYFCATRYRKQYKPYEYWGQGTQVTVSS,high polyreactivity
21,QVQLVESGGGLVQAGGSLRLTCAASGSTFSRYVIGWYRQEPGKERELVAAISRSGSTYYADSVKGRFTISRDNAKNTVYLQMNSLKPEDTAVYYCAASGSKSAGYGYWGQGTQVTVSS,high polyreactivity
